The nature of this experiment: Body weight, haematological evaluation and flow cytometry of tumor-bearing mice on supplemented diets with chemotherapy (Example 2). The class given is in vivo, C57BL/6 (H-2b) mice. Here is the method:
Mice. […] The animals were distributed into 7 different group diets. There was a control group that received the diet AIN 93 for adult rodents (maintenance). […] Control animals without chemotherapeutic treatment were run in parallel for all tested diets. Body weight was assessed every two days. Blood samples were obtained at day 2, 4 and 10 after the chemo-treatment and at sacrifice (14 or 28 days). An autopsy was performed and tumor mass was assessed.
Haematological evaluation.
Flow cytometric analysis.

B1: lactoferrin: diet with 25 mg/day of lactoferrin (protein, UniProt P24627 20-708, looked up)
Lactotransferrin: APRKNVRWCTISQPEWFKCRRWQWRMKKLGAPSITCVRRAFALECIRAIAEKKADAVTLDGGMVFEAGRDPYKLRPVAAEIYGTKESPQTHYYAVAVVKKGSNFQLDQLQGRKSCHTGLGRSAGWIIPMGILRPYLSWTESLEPLQGAVAKFFSASCVPCIDRQAYPNLCQLCKGEGENQCACSSREPYFGYSGAFKCLQDGAGDVAFVKETTVFENLPEKADRDQYELLCLNNSRAPVDAFKECHLAQVPSHAVVARSVDGKEDLIWKLLSKAQEKFGKNKSRSFQLFGSPPGQRDLLFKDSALGFLRIPSKVDSALYLGSRYLTTLKNLRETAEEVKARYTRVVWCAVGPEEQKKCQQWSQQSGQNVTCATASTTDDCIVLVLKGEADALNLDGGYIYTAGKCGLVPVLAENRKSSKHSSLDCVLRPTEGYLAVAVVKKANEGLTWNSLKDKKSCHTAVDRTAGWNIPMGLIVNQTGSCAFDEFFSQSCAPGADPKSRLCALCAGDDQGLDKCVPNSKEKYYGYTGAFRCLAEDVGDVAFVKNDTVWENTNGESTADWAKNLNREDFRLLCLDGTRKPVTEAQSCHLAVAPNHAVVSRSDRAAHVKQVLLHQQALFGKNGKNCPDKFCLFKSETKNLLFNDNTECLAKLGGRPTYEEYLGTEYVTAIANLKKCSTSPLLEACAFLTR
As to B1, the “toxicity (bone marrow)” value (chemotherapy treated group compared to the control, FIG. 11) was “less toxicity”. The Global lymphocyte population result (following chemotherapy, supplemented diet) is “less depressed following chemotherapy”. For the same molecule, the leukocytic increase result (oxaliplatin treated animals, supplemented diet) is recorded as “tended to be higher”. Further, where the note is “second phase (tumor-induced toxicity)”, the “immune cell population / concentration” value was “increase in their immune cell population”.

Values taken from patent US20110229521A1, “NUTRITIONAL SUPPORT OF THE IMMUNE SYSTEM DURING ANTI-CANCER TREATMENT” (priority 2008, published 2011).
